Experiment [1] concerns the target T1, recombinant CD40 associated with the constant part of the heavy chain of mouse IgG2a (human CD40 muIg fusion … (human; mouse, UniProt P25942 21-193, limits assumed).
T1 construct: Bought reagent; Captured on the chip by rabbit antibodies against the constant part of mouse immunoglobulins; not shown: constant part of the heavy chain of mouse IgG2a
Kind of experiment: SPR (BIAcore 3000): CD40 muIg captured by anti-mouse Ig, ligand injected as analyte. On the technique in general: Surface plasmon resonance follows binding to a sensor surface in real time, without labels.

In experiment [2] the target is membranous CD40 on Burkitt's lymphoma cells (BL41, Raji) (UniProt P25942). The experiment in a line: flow cytometry on BL41 cells, 2.5 µM biotinylated L41 developed with streptavidin-FITC; the control panel without streptavidin-FITC (BL41 L41 2.5 -SAvFITC) prints 1.3% for the same quadrant. (Flow cytometry measures light scatter and fluorescence of single cells or particles in a stream.)
Sequence of membranous CD40 on Burkitt's lymphoma cells (BL41, Raji) (P25942 21-277 limits assumed): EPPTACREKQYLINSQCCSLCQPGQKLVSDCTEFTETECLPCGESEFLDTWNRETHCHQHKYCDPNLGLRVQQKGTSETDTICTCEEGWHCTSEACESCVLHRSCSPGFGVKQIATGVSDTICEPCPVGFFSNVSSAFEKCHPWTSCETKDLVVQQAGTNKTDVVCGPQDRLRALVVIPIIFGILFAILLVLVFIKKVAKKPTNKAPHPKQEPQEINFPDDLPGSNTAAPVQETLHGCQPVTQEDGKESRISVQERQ

For experiment [3], the target named is recombinant CD40 associated with the constant part of the heavy chain of mouse IgG2a (human CD40 muIg fusion protein, ANCELL Corporation) (human; mouse) (UniProt P25942). The experiment in a line: SPR (BIAcore 3000): CD40 muIg captured by anti-mouse Ig, ligand injected as analyte.
Sequence of recombinant CD40 associated with the constant part of the heavy chain of mouse IgG2a (human CD40 muIg fusion protein, ANCELL Corporation) (human; mouse) (P25942 21-193 limits assumed): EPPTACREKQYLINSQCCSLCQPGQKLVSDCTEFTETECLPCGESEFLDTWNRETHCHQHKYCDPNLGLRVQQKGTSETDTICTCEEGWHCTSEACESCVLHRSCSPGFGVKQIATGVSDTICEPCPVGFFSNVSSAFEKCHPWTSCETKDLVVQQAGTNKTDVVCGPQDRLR
The target in experiment [4] is membranous CD40 on Burkitt's lymphoma cells (BL41, Raji) (UniProt P25942). The experiment in a line: flow cytometry on BL41 cells, 2.5 µM biotinylated L41 developed with streptavidin-FITC; the control panel without streptavidin-FITC (BL41 L41 2.5 -SAvFITC) prints 4.3% for the same quadrant.

Non-standard residues stand in square brackets, D forms with d. No end group written: not given here. *: point of attachment. Biotin = O=C1N[C@H]2[C@H](CS[C@H]2CCCCC(=O)*)N1; Ahx = NCCCCCC(=O)O

T1 sequence (P25942 21-193 limits assumed): as above

B1: L40 ligand, compound of formula (III-e) (peptide)
peptide: H-K[dP]YY[Ahx]
chain: K[dA]K[dA]K[dA]
modifications: also: chain 2 cyclised head to tail, three chain-1 arms, each Ahx carboxyl amide-linked to one Lys side-chain amine of cyclic chain 2 (C3-symmetric trimer), head-to-tail to a chain's N/C-terminus
notes: Branched synthetic trimer with C3 symmetry: three pentapeptide arms on a cyclic hexapeptide
Turning to B1, the equilibrium dissociation constant (Kd) in experiment [1] is 310 nM.

B2: L41 ligand (compound A), biotinylated (peptide)
peptide: KGYY[Ahx]
chain: [dA]K[dK](Biotin)K[dA]K
modifications: also: three KGYY-Ahx arms, each Ahx amide-linked to side-chain amines of Lys2, Lys4, Lys6 of the cyclic chain, head-to-tail to a chain's N/C-terminus
For B2, the % of cells in the upper right quadrant (FL1-H above the line, high FSC-H) in experiment [2] was determined as 23.5%. The Kd in experiment [3] was 28 nM. Also, in experiment [4], the % of cells in the upper left quadrant (FL1-H above the line, low FSC-H) turned out to be 10.2%.

One may read the Kd as a measure of binding affinity in units of concentration.

Source of the values: patent US20100183642A1 (CENTRE NATIONAL DE LA RECHERCHE SCIENTIFIQUE, published 2010).
